Test results as given in patent publication US20200040059A1.
Values joined by “and” are separate entries in the source; they are usually repeats but may differ in a detail not shown here. Equal entries are not always repeated.

Molecular target: T1, CD96 (UniProt P40200)
T1 sequence (looked up): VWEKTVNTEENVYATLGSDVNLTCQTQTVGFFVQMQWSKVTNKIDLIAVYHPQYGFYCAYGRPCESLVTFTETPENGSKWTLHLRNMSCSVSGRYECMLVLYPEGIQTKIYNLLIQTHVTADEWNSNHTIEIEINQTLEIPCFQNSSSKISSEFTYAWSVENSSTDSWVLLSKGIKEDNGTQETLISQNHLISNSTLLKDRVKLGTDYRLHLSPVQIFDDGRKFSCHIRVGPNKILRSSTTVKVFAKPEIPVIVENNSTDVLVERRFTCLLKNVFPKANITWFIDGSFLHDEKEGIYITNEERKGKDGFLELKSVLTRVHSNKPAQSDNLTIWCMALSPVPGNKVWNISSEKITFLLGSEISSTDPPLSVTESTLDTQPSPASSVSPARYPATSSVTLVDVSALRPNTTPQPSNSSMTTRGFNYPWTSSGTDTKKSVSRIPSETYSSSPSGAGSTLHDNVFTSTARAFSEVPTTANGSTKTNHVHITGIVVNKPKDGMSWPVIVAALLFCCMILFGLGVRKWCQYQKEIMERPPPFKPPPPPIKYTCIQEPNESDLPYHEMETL
Assay: flow cytometry, cells expressing target, 25 nM

CD112-IgV, sequence (Q92692 32-156 limits assumed): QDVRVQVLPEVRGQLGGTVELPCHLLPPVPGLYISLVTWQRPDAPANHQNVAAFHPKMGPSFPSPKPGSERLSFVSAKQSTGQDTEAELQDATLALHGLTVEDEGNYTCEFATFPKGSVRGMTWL

MFI at 25 nM | Substance
737 MFI | CD155 variant IgV-Fc P18S, W46R, E68D, L79P, F91S, T107M, R113G (from UniProt P15151 24-139) (Fc fusion)
2710 MFI | CD155 variant IgV-Fc T15I, P18S, V33M, N35F, T39S, M55L, R78S, L79P, F91S, T107M (from UniProt P15151 24-139) (Fc fusion)
69900 MFI | CD155 variant IgV-Fc V11A, P18T, N35S, L79P, S87T, F91S (from UniProt P15151 24-139) (Fc fusion)
43900 MFI | CD155 variant IgV-Fc V9I, P18S, S24P, H49Q, F58Y, Q60R, Q62K, L79P, F91S, T107M (from UniProt P15151 24-139) (Fc fusion)
1170 MFI | CD112-IgV (from UniProt Q92692 32-156) (Fc fusion)
1050 MFI and 924 MFI | CD155 variant IgV-Fc P18S, S42T, E51G, L79P, F91S, G92W, T107M (from UniProt P15151 24-139) (Fc fusion)

Further lines, the substance ahead of its results:

Substance | MFI at 25 nM
CD155 variant IgV-Fc V9L, P18Y, V25A, V38G, M55V, A77T, L79P, M90I, F91S, L104M (from UniProt P15151 24-139) (Fc fusion) | 18000 MFI
CD155 variant IgV-Fc P18S, P34S, E51V, L79P, F91S, G111R (from UniProt P15151 24-139) (Fc fusion) | 892 MFI
CD155 variant IgV-Fc P18S, L21M, Y30F, N35D, R84W, F91S, T107M, D116G (from UniProt P15151 24-139) (Fc fusion) | 1030 MFI

Molecular target: T2, CD226 (human) (UniProt Q15762)
T2 sequence: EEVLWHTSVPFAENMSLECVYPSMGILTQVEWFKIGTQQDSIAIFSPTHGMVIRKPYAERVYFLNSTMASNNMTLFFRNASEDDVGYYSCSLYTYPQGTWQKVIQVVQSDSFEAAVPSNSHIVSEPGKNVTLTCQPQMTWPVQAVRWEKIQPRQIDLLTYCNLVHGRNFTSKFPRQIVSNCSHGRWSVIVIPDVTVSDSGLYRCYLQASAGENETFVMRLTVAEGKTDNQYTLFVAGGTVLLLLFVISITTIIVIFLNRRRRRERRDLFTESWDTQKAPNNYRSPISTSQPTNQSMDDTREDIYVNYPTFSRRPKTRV
Assay: flow cytometry, cells expressing target, 25 nM

MFI at 25 nM | Substance
717 MFI | CD155 variant IgV-Fc P18S, W46R, E68D, L79P, F91S, T107M, R113G (from UniProt P15151 24-139) (Fc fusion)
1020 MFI | CD155 variant IgV-Fc T15I, P18S, V33M, N35F, T39S, M55L, R78S, L79P, F91S, T107M (from UniProt P15151 24-139) (Fc fusion)
274000 MFI | CD155 variant IgV-Fc V11A, P18T, N35S, L79P, S87T, F91S (from UniProt P15151 24-139) (Fc fusion)
1090 MFI | CD155 variant IgV-Fc V9I, P18S, S24P, H49Q, F58Y, Q60R, Q62K, L79P, F91S, T107M (from UniProt P15151 24-139) (Fc fusion)
824 MFI | CD112-IgV (from UniProt Q92692 32-156) (Fc fusion)
707 MFI and 851 MFI | CD155 variant IgV-Fc P18S, S42T, E51G, L79P, F91S, G92W, T107M (from UniProt P15151 24-139) (Fc fusion)

The remaining lines, values behind:

Substance | MFI at 25 nM
CD155 variant IgV-Fc V9L, P18Y, V25A, V38G, M55V, A77T, L79P, M90I, F91S, L104M (from UniProt P15151 24-139) (Fc fusion) | 26000 MFI
CD155 variant IgV-Fc P18S, P34S, E51V, L79P, F91S, G111R (from UniProt P15151 24-139) (Fc fusion) | 769 MFI
CD155 variant IgV-Fc P18S, L21M, Y30F, N35D, R84W, F91S, T107M, D116G (from UniProt P15151 24-139) (Fc fusion) | 743 MFI

Molecular target: CD112R (human) (UniProt Q6DKI7)
Assay: flow cytometry, cells expressing target, 25 nM

CD112R (human), sequence (Q6DKI7 whole entry): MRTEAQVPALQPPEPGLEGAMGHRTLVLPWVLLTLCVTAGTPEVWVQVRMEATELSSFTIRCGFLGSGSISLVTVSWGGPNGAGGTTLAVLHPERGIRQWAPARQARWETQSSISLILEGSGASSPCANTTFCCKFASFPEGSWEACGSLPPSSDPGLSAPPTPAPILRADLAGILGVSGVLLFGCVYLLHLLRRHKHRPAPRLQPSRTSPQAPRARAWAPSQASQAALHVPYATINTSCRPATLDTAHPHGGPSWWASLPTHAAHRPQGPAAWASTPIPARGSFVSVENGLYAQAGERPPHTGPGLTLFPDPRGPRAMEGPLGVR

MFI at 25 nM | Substance
798 MFI | CD155 variant IgV-Fc P18S, W46R, E68D, L79P, F91S, T107M, R113G (from UniProt P15151 24-139) (Fc fusion)
789 MFI | CD155 variant IgV-Fc T15I, P18S, V33M, N35F, T39S, M55L, R78S, L79P, F91S, T107M (from UniProt P15151 24-139) (Fc fusion)
1270 MFI | CD155 variant IgV-Fc V11A, P18T, N35S, L79P, S87T, F91S (from UniProt P15151 24-139) (Fc fusion)
1030 MFI | CD155 variant IgV-Fc V9I, P18S, S24P, H49Q, F58Y, Q60R, Q62K, L79P, F91S, T107M (from UniProt P15151 24-139) (Fc fusion)
857 MFI and 935 MFI | CD155 variant IgV-Fc P18S, S42T, E51G, L79P, F91S, G92W, T107M (from UniProt P15151 24-139) (Fc fusion)

Continued, substance first:

Substance | MFI at 25 nM
CD155 variant IgV-Fc V9L, P18Y, V25A, V38G, M55V, A77T, L79P, M90I, F91S, L104M (from UniProt P15151 24-139) (Fc fusion) | 919 MFI
CD155 variant IgV-Fc P18S, P34S, E51V, L79P, F91S, G111R (from UniProt P15151 24-139) (Fc fusion) | 853 MFI
CD155 variant IgV-Fc P18S, L21M, Y30F, N35D, R84W, F91S, T107M, D116G (from UniProt P15151 24-139) (Fc fusion) | 946 MFI

Molecular target: CD80 (Homo sapiens (Human)) (UniProt P33681)
Assay: flow cytometry, cells expressing CD80

CD80 (Homo sapiens (Human)), sequence (P33681 35-288 limits assumed): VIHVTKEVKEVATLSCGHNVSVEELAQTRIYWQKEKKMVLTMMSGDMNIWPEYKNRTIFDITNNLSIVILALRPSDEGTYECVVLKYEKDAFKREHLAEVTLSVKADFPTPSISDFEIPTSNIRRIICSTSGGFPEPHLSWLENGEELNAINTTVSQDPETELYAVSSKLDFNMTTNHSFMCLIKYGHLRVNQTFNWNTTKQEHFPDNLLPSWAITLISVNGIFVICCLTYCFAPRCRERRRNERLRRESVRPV

MFI at 20 nM | Substance
128 | variant PD-L1 ECD-Fc G15A, V129D (from UniProt Q9NZQ7 19-238) (Fc fusion)
22100 | variant PD-L1 ECD-Fc S99G, T185A, R195G, P198T (from UniProt Q9NZQ7 19-238) (Fc fusion)
44600 | variant PD-L1 ECD-Fc I36S, M97L (from UniProt Q9NZQ7 19-238) (Fc fusion)

Molecular target: T3, human TIGIT, full length, expressed on transfected cells (human) (UniProt Q495A1)
T3 sequence: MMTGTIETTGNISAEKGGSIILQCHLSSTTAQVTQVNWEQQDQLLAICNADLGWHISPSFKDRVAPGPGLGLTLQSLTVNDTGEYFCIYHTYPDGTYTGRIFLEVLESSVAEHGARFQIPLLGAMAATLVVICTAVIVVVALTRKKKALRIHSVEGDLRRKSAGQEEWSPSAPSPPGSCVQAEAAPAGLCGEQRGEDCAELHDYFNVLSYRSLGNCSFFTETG
Assay: flow cytometry on transfected cells

MFI at 100 nM | Substance
4090 | CD155 variant T45Q, S52R, G111R IgV-Fc (from UniProt P15151 24-139) (Fc fusion)
2430 | CD155 variant S42N, L104Q, G111R IgV-Fc (from UniProt P15151 24-139) (Fc fusion)
4810 | CD155 variant T45Q, S52Q IgV-Fc (from UniProt P15151 24-139) (Fc fusion)

The remaining lines, values behind:

Substance | MFI at 100 nM
CD155 variant L104E IgV-Fc (from UniProt P15151 24-139) (Fc fusion) | 3140
CD155 variant S42G IgV-Fc (from UniProt P15151 24-139) (Fc fusion) | 4840
CD155 variant S52M, L104Q IgV-Fc (from UniProt P15151 24-139) (Fc fusion) | 2670
CD155 variant S42A, S52L, L104E, G111R IgV-Fc (from UniProt P15151 24-139) (Fc fusion) | 2260

Molecular target: CD96, expressed on transfected cells (UniProt P40200)
Assay: flow cytometry on transfected cells

MFI at 100 nM | Substance
2340 | CD155 variant T45Q, S52R, G111R IgV-Fc (from UniProt P15151 24-139) (Fc fusion)
1960 | CD155 variant S42N, L104Q, G111R IgV-Fc (from UniProt P15151 24-139) (Fc fusion)
2450 | CD155 variant T45Q, S52Q IgV-Fc (from UniProt P15151 24-139) (Fc fusion)

Further lines, the substance ahead of its results:

Substance | MFI at 100 nM
CD155 variant L104E IgV-Fc (from UniProt P15151 24-139) (Fc fusion) | 1560
CD155 variant S42G IgV-Fc (from UniProt P15151 24-139) (Fc fusion) | 1700
CD155 variant S52M, L104Q IgV-Fc (from UniProt P15151 24-139) (Fc fusion) | 1630

Molecular target: CD112R, expressed on transfected cells (human) (UniProt Q6DKI7)
Assay: flow cytometry on transfected cells

CD112R, expressed on transfected cells (human), sequence (Q6DKI7 whole entry): as the sequence (Q6DKI7 whole entry) above

MFI at 100 nM | Substance
1790 | CD155 variant T45Q, S52R, G111R IgV-Fc (from UniProt P15151 24-139) (Fc fusion)
1850 | CD155 variant S42N, L104Q, G111R IgV-Fc (from UniProt P15151 24-139) (Fc fusion)
1770 | CD155 variant T45Q, S52Q IgV-Fc (from UniProt P15151 24-139) (Fc fusion)

Second part, the substance before the results:

Substance | MFI at 100 nM
CD155 variant L104E IgV-Fc (from UniProt P15151 24-139) (Fc fusion) | 1800
CD155 variant S42G IgV-Fc (from UniProt P15151 24-139) (Fc fusion) | 1820
CD155 variant S52M, L104Q IgV-Fc (from UniProt P15151 24-139) (Fc fusion) | 1710

Molecular target: T4, human CD226, full length, expressed on transfected cells (human) (UniProt Q15762)
T4 sequence: T2 sequence
Assay: flow cytometry on transfected cells

MFI at 100 nM | Substance
2080 | CD155 variant T45Q, S52R, G111R IgV-Fc (from UniProt P15151 24-139) (Fc fusion)
2310 | CD155 variant S42N, L104Q, G111R IgV-Fc (from UniProt P15151 24-139) (Fc fusion)
5790 | CD155 variant T45Q, S52Q IgV-Fc (from UniProt P15151 24-139) (Fc fusion)

Continued, substance first:

Substance | MFI at 100 nM
CD155 variant L104E IgV-Fc (from UniProt P15151 24-139) (Fc fusion) | 2260
CD155 variant S42G IgV-Fc (from UniProt P15151 24-139) (Fc fusion) | 2450
CD155 variant S52M, L104Q IgV-Fc (from UniProt P15151 24-139) (Fc fusion) | 2250
CD155 variant S42A, S52L, L104E, G111R IgV-Fc (from UniProt P15151 24-139) (Fc fusion) | 1890
